Test results: PMC5682286

Tests used:
[1] = biological target: tES-rLuc, Renilla luciferase fused to the C-terminus of a histidine-tagged tES subunit (Archaeoglobus fulgidus | Renilla) (UniProt O29424); assay: pull-down + SEC; tES(+) and His-tagged tES-POI coexpressed in E. coli BL21(DE3); Ni-NTA by the His tag of the fusion subunit, then SEC (25 mM Tris-HCl, pH 8); ratio by gel densitometry of purified fractions
[2] = biological target: tES-HRPc, truncated horseradish peroxidase fused to the C-terminus of a histidine-tagged tES subunit (Archaeoglobus fulgidus | horseradish) (UniProt O29424); assay: as above
[3] = biological target: tES-GFPuv, GFPuv fused to the C-terminus of a histidine-tagged tES subunit (Archaeoglobus fulgidus | not stated) (UniProt O29424); assay: as above
[4] = biological target: tES-GFPuv, GFPuv fused to the C-terminus of a histidine-tagged tES subunit (Archaeoglobus fulgidus | not stated) (UniProt O29424)

stoichiometry N (tES subunits per tES-POI fusion subunit) [1] | stoichiometry N (tES subunits per tES-POI fusion subunit) [2] | stoichiometry N (tES subunits per tES-POI fusion subunit) [3] | GFPuv fluorescence after in vitro folding; molar ratios of tES(+)F116H subunits to tES-GFPuv from 0:1 to 90:1, highest at 90:1 [4] [fold] | Substance
20 | 19 | 32 | – | tES(+) thermostable exoshell subunit, net positive cavity (from UniProt O29424 1-164)
– | – | – | 100 | tES(+)F116H, pH-titratable exoshell subunit (from UniProt O29424 1-164)
